Source: doi:10.1101/2023.04.22.537027 (bioRxiv, 2023)

Target: the molecule itself
Assay: crystal structure

B1: Cdc10_(Δ1-10) (domain or fragment)
chain: SYVGFDTITNQIEHRLLKKGFQFNIMVVGQSGLGKSTLINTLFASHLIDSATGDDISALPVTKTTEMKISTHTLVEDRVRLNINVIDTPGFGDFIDNSKAWEPIVKYIKEQHSQYLRKELTAQRERFITDTRVHAILYFLQPNGKELSRLDVEALKRLTEIANVIPVIGKSDTLTLDERTEFRELIQNEFEKYNFKIYPYDSEELTDEELELNRSVRSIIPFAVVGSENEIEINGETFRGRKTRWSAINVEDINQCDFVYLREFLIRTHLQDLIETTSYIHYEGFRARQLIALKENANSRSSAHMSSNAIQR
B1: binds.
